# The supplement of paper PMC10065799, “High-throughput profiling of sequence recognition by tyrosine kinases and SH2 domains using bacterial peptide display” (eLife, 2023)
# Test system: AncSZ
# Assay: phosphorylation enrichment, bacterial display (enrichment ratio); higher = better substrate or ligand; peptides without Tyr show the background
# 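Also: 11-residue human phosphosite peptides and single-mutation variants displayed on the E. coli surface, counted by deep sequencing, each peptide's frequency after selection divided by its frequency in the unselected input library; frequency after pTyr selection over input frequency; kinase dosed for 20-30% of maximal phosphorylation in three min.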
row,Sequence,phosphorylation enrichment
1,TQPSPYAVFLF [RPGRIP1_Y823_R827L_YF],0.826
2,SLAARYYNWVS [FLT4_Y1230],1.06
3,DVCKNYAEAKD [ALB_Y343],1.07
4,DVQNEYDSNHC [ZFYVE16_Y36_A35E],1.01
5,GFWPRYVKVGS [NOG_Y172_R167G],0.746
6,ERNAHYRTPKI [PTK2B_Y699_R698H],0.586
7,QGIYGYHHHMQ [UFSP2_Y287_Y290H],0.932
8,NELTFYCFKKD [CD59_Y87_C89Y_YF],0.96
9,PEAALYGRFTF [FYN_Y440_I445F],1.21
10,SYNNKYGMVAQ [APOB_Y276_K273N],0.623
11,ERTIEYLEEVV [HADHA_Y239_A244V],1.18
12,FIAVGYVDDSQ [HLA-A_Y51_T55S],0.783
13,DPGVSYRTREE [PDHA1_Y301],0.891
14,IKSSIYDNRNE [ARAP2_Y380_K384N],0.505
15,ELAINYQEQAS [SLC9A9_Y591],0.923
16,EKFVPYYDLFM [IPO5_Y530],1.2
17,DRLAVYIDRVR [LMNA_Y45],1.24

row,Sequence,phosphorylation enrichment
1,LPPGTYPSDFT [UNC5B_Y511_A516T],1.58
2,LVRPPYSYSAL [FOXI1_Y126],0.952
3,KDHPDYKYQLR [SOX10_Y171_P175L],0.665
4,KVVVPYEPPEV [TP53_Y220_S215K],0.921
5,AALSAYAAQRP [PTPRN2_Y249],0.439
6,SEPSGYQDNIA [DES_Y363_A360P],1.02
7,LNSFIYSLRNR [OR1A1_Y288_P285S],1.3
8,SLAARYFNWVC [FLT4_Y1230_S1235C_YF],1.21
9,LEHCQYVTQKV [ALDOB_Y204_E207Q],1.01
10,PEQAAYQKVVA [HBB_Y131_V127E],0.591
11,GNYSGYDDAWD [POLR1C_Y36],1.62
12,QNKEDYDGLKE [GSTO1_Y139_A140D],1.83
13,TNLVPYPCIHF [TUBA1A_Y262_R264C],0.975
14,LKGQVYILGWE [ASS1_Y359_R363W],1.14
15,LLKANYELLNA [POLR3A_Y714_K713N],0.975
16,RQEEEYKRLSE [SFSWAP_Y133],2.53

# Target: EPHB1 (UniProt P54762)
# Assay: as above
# Sequence of EPHB1 (P54762 whole entry, looked up): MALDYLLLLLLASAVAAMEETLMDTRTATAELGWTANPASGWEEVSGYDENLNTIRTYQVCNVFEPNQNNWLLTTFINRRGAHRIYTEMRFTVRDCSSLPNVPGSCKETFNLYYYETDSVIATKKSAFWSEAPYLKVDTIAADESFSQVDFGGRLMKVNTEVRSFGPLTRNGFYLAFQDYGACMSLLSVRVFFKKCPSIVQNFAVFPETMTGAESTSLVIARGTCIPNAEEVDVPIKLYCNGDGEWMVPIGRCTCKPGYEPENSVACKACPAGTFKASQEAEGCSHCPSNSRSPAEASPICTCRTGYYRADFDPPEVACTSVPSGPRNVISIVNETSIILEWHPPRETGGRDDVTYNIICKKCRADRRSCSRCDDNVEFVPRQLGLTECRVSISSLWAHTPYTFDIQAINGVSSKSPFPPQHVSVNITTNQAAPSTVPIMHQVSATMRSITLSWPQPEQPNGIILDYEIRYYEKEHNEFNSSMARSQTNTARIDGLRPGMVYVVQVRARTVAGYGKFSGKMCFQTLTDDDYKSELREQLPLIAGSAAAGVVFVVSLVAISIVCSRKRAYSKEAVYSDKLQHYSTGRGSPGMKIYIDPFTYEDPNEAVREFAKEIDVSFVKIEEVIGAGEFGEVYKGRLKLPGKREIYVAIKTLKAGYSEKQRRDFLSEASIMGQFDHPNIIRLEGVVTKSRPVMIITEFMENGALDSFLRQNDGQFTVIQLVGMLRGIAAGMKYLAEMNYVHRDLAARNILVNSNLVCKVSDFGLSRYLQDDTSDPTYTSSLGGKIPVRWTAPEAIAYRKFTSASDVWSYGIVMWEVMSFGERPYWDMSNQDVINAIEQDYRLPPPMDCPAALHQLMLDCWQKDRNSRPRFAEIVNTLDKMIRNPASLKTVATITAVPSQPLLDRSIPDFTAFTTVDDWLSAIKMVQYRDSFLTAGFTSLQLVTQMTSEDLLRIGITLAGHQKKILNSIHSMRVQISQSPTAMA
row,Sequence,phosphorylation enrichment
1,TQPSPYAVFLF [RPGRIP1_Y823_R827L_YF],2.12
2,SLAARYYNWVS [FLT4_Y1230],0.756
3,DVCKNYAEAKD [ALB_Y343],0.541
4,DVQNEYDSNHC [ZFYVE16_Y36_A35E],0.508
5,GFWPRYVKVGS [NOG_Y172_R167G],0.594
6,ERNAHYRTPKI [PTK2B_Y699_R698H],0.583
7,QGIYGYHHHMQ [UFSP2_Y287_Y290H],2.34
8,NELTFYCFKKD [CD59_Y87_C89Y_YF],0.541
9,PEAALYGRFTF [FYN_Y440_I445F],1.14
10,SYNNKYGMVAQ [APOB_Y276_K273N],0.381
11,ERTIEYLEEVV [HADHA_Y239_A244V],0.559
12,FIAVGYVDDSQ [HLA-A_Y51_T55S],0.469
13,DPGVSYRTREE [PDHA1_Y301],0.385
14,IKSSIYDNRNE [ARAP2_Y380_K384N],0.413
15,ELAINYQEQAS [SLC9A9_Y591],0.526
16,EKFVPYYDLFM [IPO5_Y530],4.82
17,DRLAVYIDRVR [LMNA_Y45],0.542

row,Sequence,phosphorylation enrichment
1,LPPGTYPSDFT [UNC5B_Y511_A516T],0.694
2,LVRPPYSYSAL [FOXI1_Y126],1.07
3,KDHPDYKYQLR [SOX10_Y171_P175L],0.417
4,KVVVPYEPPEV [TP53_Y220_S215K],0.452
5,AALSAYAAQRP [PTPRN2_Y249],0.299
6,SEPSGYQDNIA [DES_Y363_A360P],0.546
7,LNSFIYSLRNR [OR1A1_Y288_P285S],0.617
8,SLAARYFNWVC [FLT4_Y1230_S1235C_YF],0.61
9,LEHCQYVTQKV [ALDOB_Y204_E207Q],0.818
10,PEQAAYQKVVA [HBB_Y131_V127E],0.613
11,GNYSGYDDAWD [POLR1C_Y36],6.73
12,QNKEDYDGLKE [GSTO1_Y139_A140D],1.02
13,TNLVPYPCIHF [TUBA1A_Y262_R264C],0.599
14,LKGQVYILGWE [ASS1_Y359_R363W],0.655
15,LLKANYELLNA [POLR3A_Y714_K713N],1.28
16,RQEEEYKRLSE [SFSWAP_Y133],0.574

# Target: EPHB2 (UniProt P29323)
# Assay: as above
# Sequence of EPHB2 (P29323 whole entry, looked up): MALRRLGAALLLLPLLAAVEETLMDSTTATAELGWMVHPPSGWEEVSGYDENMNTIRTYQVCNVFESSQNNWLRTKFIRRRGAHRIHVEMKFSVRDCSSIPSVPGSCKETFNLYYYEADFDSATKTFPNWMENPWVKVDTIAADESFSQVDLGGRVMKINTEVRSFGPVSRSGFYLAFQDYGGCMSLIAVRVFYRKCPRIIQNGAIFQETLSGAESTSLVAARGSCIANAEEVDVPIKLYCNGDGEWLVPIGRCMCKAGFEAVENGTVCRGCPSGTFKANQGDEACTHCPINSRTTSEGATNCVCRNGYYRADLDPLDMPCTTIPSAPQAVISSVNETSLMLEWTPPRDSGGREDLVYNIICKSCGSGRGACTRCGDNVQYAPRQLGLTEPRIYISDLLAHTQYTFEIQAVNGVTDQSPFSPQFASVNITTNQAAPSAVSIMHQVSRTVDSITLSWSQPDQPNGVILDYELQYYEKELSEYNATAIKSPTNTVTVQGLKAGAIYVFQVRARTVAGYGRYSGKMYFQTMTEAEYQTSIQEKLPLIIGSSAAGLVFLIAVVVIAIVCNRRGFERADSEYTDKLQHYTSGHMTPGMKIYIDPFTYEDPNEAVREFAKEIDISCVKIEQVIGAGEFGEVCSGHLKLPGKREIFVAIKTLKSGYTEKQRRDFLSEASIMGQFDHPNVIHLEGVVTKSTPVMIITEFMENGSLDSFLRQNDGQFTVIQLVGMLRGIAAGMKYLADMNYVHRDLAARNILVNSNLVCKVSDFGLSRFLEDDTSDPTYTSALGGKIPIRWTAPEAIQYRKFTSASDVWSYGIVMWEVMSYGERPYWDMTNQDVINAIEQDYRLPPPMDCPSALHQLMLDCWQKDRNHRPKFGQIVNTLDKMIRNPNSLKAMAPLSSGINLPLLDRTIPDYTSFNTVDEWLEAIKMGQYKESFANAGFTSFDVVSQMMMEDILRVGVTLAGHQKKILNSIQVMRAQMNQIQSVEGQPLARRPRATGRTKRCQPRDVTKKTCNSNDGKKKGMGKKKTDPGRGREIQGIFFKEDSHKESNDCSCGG
row,Sequence,phosphorylation enrichment
1,TQPSPYAVFLF [RPGRIP1_Y823_R827L_YF],1.28
2,SLAARYYNWVS [FLT4_Y1230],0.83
3,DVCKNYAEAKD [ALB_Y343],0.561
4,DVQNEYDSNHC [ZFYVE16_Y36_A35E],0.513
5,GFWPRYVKVGS [NOG_Y172_R167G],0.532
6,ERNAHYRTPKI [PTK2B_Y699_R698H],0.561
7,QGIYGYHHHMQ [UFSP2_Y287_Y290H],4.59
8,NELTFYCFKKD [CD59_Y87_C89Y_YF],0.492
9,PEAALYGRFTF [FYN_Y440_I445F],1.2
10,SYNNKYGMVAQ [APOB_Y276_K273N],0.474
11,ERTIEYLEEVV [HADHA_Y239_A244V],0.615
12,FIAVGYVDDSQ [HLA-A_Y51_T55S],0.491
13,DPGVSYRTREE [PDHA1_Y301],0.61
14,IKSSIYDNRNE [ARAP2_Y380_K384N],0.502
15,ELAINYQEQAS [SLC9A9_Y591],0.469
16,EKFVPYYDLFM [IPO5_Y530],6.87
17,DRLAVYIDRVR [LMNA_Y45],0.554

row,Sequence,phosphorylation enrichment
1,LPPGTYPSDFT [UNC5B_Y511_A516T],0.536
2,LVRPPYSYSAL [FOXI1_Y126],0.568
3,KDHPDYKYQLR [SOX10_Y171_P175L],0.395
4,KVVVPYEPPEV [TP53_Y220_S215K],0.573
5,AALSAYAAQRP [PTPRN2_Y249],0.353
6,SEPSGYQDNIA [DES_Y363_A360P],0.595
7,LNSFIYSLRNR [OR1A1_Y288_P285S],0.653
8,SLAARYFNWVC [FLT4_Y1230_S1235C_YF],0.656
9,LEHCQYVTQKV [ALDOB_Y204_E207Q],0.924
10,PEQAAYQKVVA [HBB_Y131_V127E],0.811
11,GNYSGYDDAWD [POLR1C_Y36],5.87
12,QNKEDYDGLKE [GSTO1_Y139_A140D],1.04
13,TNLVPYPCIHF [TUBA1A_Y262_R264C],0.557
14,LKGQVYILGWE [ASS1_Y359_R363W],0.57
15,LLKANYELLNA [POLR3A_Y714_K713N],0.804
16,RQEEEYKRLSE [SFSWAP_Y133],1.15

# Target: FGFR1 (UniProt P11362)
# Assay: as above
# Sequence of FGFR1 (P11362 whole entry, looked up): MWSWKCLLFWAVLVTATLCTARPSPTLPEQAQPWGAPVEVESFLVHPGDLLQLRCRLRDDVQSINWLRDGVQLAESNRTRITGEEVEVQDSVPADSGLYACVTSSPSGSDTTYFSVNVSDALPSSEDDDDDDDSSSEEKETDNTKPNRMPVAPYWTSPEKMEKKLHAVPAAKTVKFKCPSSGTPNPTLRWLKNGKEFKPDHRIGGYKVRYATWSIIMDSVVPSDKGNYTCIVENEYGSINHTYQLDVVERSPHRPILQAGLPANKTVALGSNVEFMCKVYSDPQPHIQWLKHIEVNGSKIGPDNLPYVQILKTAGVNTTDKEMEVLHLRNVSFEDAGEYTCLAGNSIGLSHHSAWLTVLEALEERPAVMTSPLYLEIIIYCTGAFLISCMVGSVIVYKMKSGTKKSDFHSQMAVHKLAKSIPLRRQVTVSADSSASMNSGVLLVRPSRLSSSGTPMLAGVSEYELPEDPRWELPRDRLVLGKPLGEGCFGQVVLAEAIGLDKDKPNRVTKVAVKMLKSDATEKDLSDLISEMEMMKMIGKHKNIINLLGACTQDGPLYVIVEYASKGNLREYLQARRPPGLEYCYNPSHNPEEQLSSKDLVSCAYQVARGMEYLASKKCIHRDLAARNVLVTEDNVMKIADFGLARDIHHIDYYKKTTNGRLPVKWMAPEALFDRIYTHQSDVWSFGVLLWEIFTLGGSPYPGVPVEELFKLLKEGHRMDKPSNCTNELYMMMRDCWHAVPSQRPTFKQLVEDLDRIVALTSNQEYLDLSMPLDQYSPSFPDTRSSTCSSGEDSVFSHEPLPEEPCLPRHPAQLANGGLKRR
row,Sequence,phosphorylation enrichment
1,TQPSPYAVFLF [RPGRIP1_Y823_R827L_YF],1.28
2,SLAARYYNWVS [FLT4_Y1230],5.38
3,DVCKNYAEAKD [ALB_Y343],0.569
4,DVQNEYDSNHC [ZFYVE16_Y36_A35E],0.512
5,GFWPRYVKVGS [NOG_Y172_R167G],0.554
6,ERNAHYRTPKI [PTK2B_Y699_R698H],0.524
7,QGIYGYHHHMQ [UFSP2_Y287_Y290H],0.613
8,NELTFYCFKKD [CD59_Y87_C89Y_YF],0.456
9,PEAALYGRFTF [FYN_Y440_I445F],1.29
10,SYNNKYGMVAQ [APOB_Y276_K273N],0.41
11,ERTIEYLEEVV [HADHA_Y239_A244V],0.55
12,FIAVGYVDDSQ [HLA-A_Y51_T55S],0.391
13,DPGVSYRTREE [PDHA1_Y301],0.637
14,IKSSIYDNRNE [ARAP2_Y380_K384N],0.443
15,ELAINYQEQAS [SLC9A9_Y591],0.522
16,EKFVPYYDLFM [IPO5_Y530],6.89
17,DRLAVYIDRVR [LMNA_Y45],0.418

row,Sequence,phosphorylation enrichment
1,LPPGTYPSDFT [UNC5B_Y511_A516T],0.717
2,LVRPPYSYSAL [FOXI1_Y126],0.572
3,KDHPDYKYQLR [SOX10_Y171_P175L],0.432
4,KVVVPYEPPEV [TP53_Y220_S215K],0.442
5,AALSAYAAQRP [PTPRN2_Y249],0.406
6,SEPSGYQDNIA [DES_Y363_A360P],0.488
7,LNSFIYSLRNR [OR1A1_Y288_P285S],0.618
8,SLAARYFNWVC [FLT4_Y1230_S1235C_YF],0.661
9,LEHCQYVTQKV [ALDOB_Y204_E207Q],0.656
10,PEQAAYQKVVA [HBB_Y131_V127E],0.519
11,GNYSGYDDAWD [POLR1C_Y36],0.723
12,QNKEDYDGLKE [GSTO1_Y139_A140D],0.867
13,TNLVPYPCIHF [TUBA1A_Y262_R264C],0.546
14,LKGQVYILGWE [ASS1_Y359_R363W],0.544
15,LLKANYELLNA [POLR3A_Y714_K713N],0.457
16,RQEEEYKRLSE [SFSWAP_Y133],0.693
